In article PMC5576371:

Molecular target: Calmodulin (His-CaM) (UniProt P0DP23)
Experiment: BLI; ForteBio Octet Red; increasing concentrations of ASPM IQ motif (GST-IQ) to CaM; 1:1 binding model; Kd calculated as Koff/Kon

Substance	Kd [µM]	fold increase of Kd against T. truncatus [fold]
GST-IQ fusion protein, ASPM 23rd IQ motif and its adjacent 16 amino acid motif, Tursiops truncatus (domain or fragment)	0.0177	
GST-IQ fusion protein, ASPM 23rd IQ motif and its adjacent 16 amino acid motif, Physeter macrocephalus (domain or fragment)		2.2
